In US20200299384A1:
Where two headings read alike, the source gives them in different places.

Key:
[1] = target: Cynomolgus Monkey CD3 epsilon protein (Cynomolgus monkey) (UniProt Q95LI5); assay: ELISA, antigen coated on plate
[2] = target: Human CD3 epsilon (CD3epsilon) protein (His Tag) (human) (UniProt P07766); assay: ELISA, antigen coated on plate
[3] = target: mouse CD3epsilon protein (mouse) (UniProt P22646); assay: ELISA, antigen coated on plate
[4] = target: human CD3 expressed on cells (Jurkat cells; human CD4 T cells) (human) (UniProt P07766); assay: flow cytometry on Jurkat cells
[5] = target: human CD3 expressed on cells (Jurkat cells; human CD4 T cells) (human) (UniProt P07766); assay: flow cytometry on human CD4 T cells
[6] = target: human CD3 expressed on cells (Jurkat cells; human CD4 T cells) (human) (UniProt P07766); assay: flow cytometry on Jurkat cells, one site saturation fit
[7] = target: human CD3 expressed on cells (Jurkat cells; human CD4 T cells) (human) (UniProt P07766); assay: as above; remark: listed apart in the source

Sequence of human CD3 expressed on cells (Jurkat cells; human CD4 T cells) (human) (P07766 23-207): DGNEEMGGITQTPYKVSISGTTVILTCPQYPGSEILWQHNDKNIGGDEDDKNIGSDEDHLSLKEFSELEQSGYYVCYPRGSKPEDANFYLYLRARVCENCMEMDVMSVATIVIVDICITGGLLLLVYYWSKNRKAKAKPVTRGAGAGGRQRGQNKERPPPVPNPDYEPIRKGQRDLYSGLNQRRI
Sequence of Human CD3 epsilon (CD3epsilon) protein (His Tag) (human) (P07766 23-126): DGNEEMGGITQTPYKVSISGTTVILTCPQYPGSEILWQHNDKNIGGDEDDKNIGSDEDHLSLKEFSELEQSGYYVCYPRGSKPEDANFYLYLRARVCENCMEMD
Sequence of mouse CD3epsilon protein (mouse) (P22646 22-108 limits assumed): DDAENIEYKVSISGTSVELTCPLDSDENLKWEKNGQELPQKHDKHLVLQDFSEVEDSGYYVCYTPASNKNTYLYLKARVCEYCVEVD
Sequence of Cynomolgus Monkey CD3 epsilon protein (Cynomolgus monkey) (Q95LI5 22-117 limits assumed): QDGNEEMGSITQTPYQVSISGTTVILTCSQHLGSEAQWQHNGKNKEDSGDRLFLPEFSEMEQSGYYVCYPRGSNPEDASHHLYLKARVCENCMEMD

Benchmark antibody OKT3
ELISA A450 [1]: 0.052 A450
ELISA A450 [2]: 0.048 A450
ELISA A450 [3]: 0.24 A450
EC50 [4]: 0.2 nM
EC50 [5]: 0.202 nM
Best fit-Bmax [6]: 9.41e-11
Kd [6]: 0.129 nM
Best fit-Bmax [7]: 6.06e-12
Kd [7]: 0.0277 nM

Negative Control (Table 7)
ELISA A450 [1]: 0.046 A450
ELISA A450 [2]: 0.046 A450
ELISA A450 [3]: 0.179 A450

WBP331-BMK1 (UCHT1) (antibody)
EC50 [2]: 0.186 nM
